Here are results for four substances from paper PMC4298044.

In assay [1] the target is APP solubilized from human brain membranes (human (endogenous in brain frontal cortex)) (UniProt P05067). Nature of the assay: native gel or EMSA; blue native-PAGE, NativePAGE Novex 4-16% Bis-Tris gels, samples with G-250 additive and dodecylmaltoside; brain membrane extracts and CSF; immunoblot with anti-APP antibodies.
Assay [2] shares this target. Nature of the assay: sucrose density gradient ultracentrifugation; continuous 5-20% sucrose gradient, 0.15 M NaCl, 50 mM MgCl2, 0.5% Brij 97, 50 mM Tris-HCl pH 7.4; 250,000 x g, 4 hr, 4°C; fractions immunoblotted; markers β-galactosidase, catalase, alkaline phosphatase.
Assay [3] has as its target soluble full-length APP (sAPPf) (human (endogenous in CSF)) (UniProt P05067). The assay is described as follows: co-IP + ELISA; CSF of AD and NDC subjects measured by sandwich ELISA (IBL sAPPα, IBL sAPPβ, or Novex kit that detects sAPPf and sAPPα) before and after immunoprecipitation with Sigma-Ct or IBL-β; read-out is the loss from the sample.
Assay [4] concerns the target sAPPβ (sAPP fragment generated after β-secretase cleavage) (human (endogenous in CSF)). Described as above.

Take “APP solubilized from human brain membranes (from UniProt P05067 18-770) (natural protein)”: the stoichiometry N in assay [1] and in assay [2] was 2 throughout. Turning to “sAPPα (sAPP fragment generated after α-secretase cleavage) (domain or fragment)”, in assay [3], the percent decrease of the ELISA level after immunoprecipitation of sAPPf (Sigma-Ct) was 33%. Consider “sAPPβ (sAPP fragment generated after β-secretase cleavage) (domain or fragment)”, for which the percent decrease of the ELISA level after immunoprecipitation of sAPPf (Sigma-Ct) in assay [3] came to 27%. As to “soluble full-length APP (sAPPf) (from UniProt P05067 18-770) (natural protein)”, in assay [4], the percent decrease of the ELISA level of sAPPf plus sAPPα after immunoprecipitation of sAPPβ (IBL-β) was found to be 89%.
